What was measured:
[1] = system: H441 tumor model; test: H441 xenograft after chemotherapy: tumor response and NRG1 expression in residual tumor cells (qPCR); type: in vivo, human
Description: (§1) RNA was isolated using the Qiagen RNeasy Micro Kit, Complementary DNA was prepared from total RNA using ABI high fidelity kit according to manufacturer's instructions. NRG1alpha, NRG1beta, HER3, HER4 expression was determined using ABI gene specific primers/probe by quantitative real time PCR (ABI 7500). Gene expression was normalized using GAPDH or RAB14 house keeping genes.
(§2) Tumor cells (10-20 million) were transplanted into right flank of athymic nude mice. When tumor size reached ˜200 mm^3, the mice were divided into different treatment groups. Mice were then treated with either vehicle or chemotherapy (paclitaxel, i.v.+cisplatin, i.p.) for the initial studies. The chemotherapy dosing regimen was paclitaxel 20 mg/kg i.v. every other day for 5 doses and cisplatin 5 mg/kg i.p. on days 1 and 7 for the Calu3 model and days 1 and 14 for the H441 model. Regressed tumors and time matched vehicle controls were collected at least 1 week after the last dose of chemo. Tumors were dissociated using dispase/collagenase and samples were FACS sorted to collect the GFP positive tumor cells. For the NRG1 knockdown studies, the treatment groups were: sucrose, doxycycline (dox), chemotherapy+sucrose, and chemotherapy+doxycycline. […]
(§3) The expression of NRG1 in TRICs isolated from the Calu3 and H441 xenograft models was analyzed. […]

[2] = system: Calu3 tumor model; test: Calu3 xenograft after chemotherapy: tumor response and NRG1 expression in residual tumor cells (qPCR); type: in vivo, human
Description: as §1, §2, §3

[3] = target: EGF (UniProt P01133 971-1023); test: ELISA
EGF, sequence (P01133 971-1023 limits assumed): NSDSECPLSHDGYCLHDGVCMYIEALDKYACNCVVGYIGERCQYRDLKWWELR

[4] = target: T1, Betacellulin (BTC) (UniProt P35070 32-111); test: ELISA
T1 sequence (looked up): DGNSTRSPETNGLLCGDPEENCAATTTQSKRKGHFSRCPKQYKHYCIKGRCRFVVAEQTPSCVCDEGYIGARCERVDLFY

[5] = target: HB-EGF (UniProt Q99075 63-148, limits assumed); test: ELISA
HB-EGF, sequence (Q99075 63-148 limits assumed): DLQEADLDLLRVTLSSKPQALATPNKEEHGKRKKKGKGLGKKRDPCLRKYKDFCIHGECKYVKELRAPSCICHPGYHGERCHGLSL

[6] = target: T2, Recombinant human NRG1-α EGF domain (R&D Systems, cat#296-HR/CF) (human, UniProt Q02297 177-241); test: SPR (BIAcore T100), IgG captured by anti-human Fc, NRG1α injected; sensorgram shown for 6.25 nM NRG-alpha
T2 construct: also called NRG1-alpha; HRG1α
T2 sequence: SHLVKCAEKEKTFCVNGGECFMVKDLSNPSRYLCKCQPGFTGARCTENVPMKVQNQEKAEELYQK
Description: (§4) Binding affinities of anti-NRG1 IgGs were measured by Surface Plasmon Resonance (SRP) using a BIAcore™-T100 instrument. Anti-NRG1 human IgGs were captured by mouse anti-human Fc antibody (GE Healthcare, cat# BR-1008-39) coated on CM5 biosensor chips to achieve approximately 1000 response units (RU). […] Association rates (kₒₙ) and dissociation rates (koff) were calculated using a simple one-to-one Langmuir binding model (BIAcore Evaluation Software version 3.2). The equilibrium dissociation constant (KD) was calculated as the ratio koff/kₒₙ.

[7] = target: T3, Recombinant human Neuregulin 1-beta (rhNRG1b, Genentech) (human, UniProt Q02297 1-640); test: cell-based or functional assay
T3 sequence: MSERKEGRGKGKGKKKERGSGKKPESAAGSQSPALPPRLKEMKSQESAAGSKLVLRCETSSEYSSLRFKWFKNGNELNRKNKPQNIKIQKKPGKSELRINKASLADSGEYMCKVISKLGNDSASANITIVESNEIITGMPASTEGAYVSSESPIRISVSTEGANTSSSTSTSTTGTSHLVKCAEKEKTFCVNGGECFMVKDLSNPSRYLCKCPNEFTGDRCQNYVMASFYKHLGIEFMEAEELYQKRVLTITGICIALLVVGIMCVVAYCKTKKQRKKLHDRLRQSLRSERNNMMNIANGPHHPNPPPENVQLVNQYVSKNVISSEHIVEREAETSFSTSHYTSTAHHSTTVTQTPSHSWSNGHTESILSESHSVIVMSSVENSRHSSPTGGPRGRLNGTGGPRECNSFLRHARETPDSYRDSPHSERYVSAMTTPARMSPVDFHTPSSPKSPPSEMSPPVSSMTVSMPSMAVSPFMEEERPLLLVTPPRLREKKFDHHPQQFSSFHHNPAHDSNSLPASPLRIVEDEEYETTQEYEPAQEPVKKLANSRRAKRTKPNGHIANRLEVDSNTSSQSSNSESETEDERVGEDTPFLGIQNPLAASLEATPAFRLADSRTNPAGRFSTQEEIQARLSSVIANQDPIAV

[8] = target: T2, Recombinant human NRG1-α EGF domain …; test: cell-based or functional assay
[9] = target: T4, Recombinant human NRG1-β ECD domain (R&D Systems, cat#377-HB/CF) (human, UniProt Q02297-11 121-191, limits assumed); test: SPR (BIAcore T100), IgG captured by anti-human Fc, NRG1β injected; sensorgram shown for 6.25 nM NRG-beta
T4 construct: also called NRG1-beta; HRG1β
T4 sequence: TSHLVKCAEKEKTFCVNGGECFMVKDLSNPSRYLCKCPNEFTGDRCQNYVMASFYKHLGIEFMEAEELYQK
Description: as §4

[10] = target: T2, Recombinant human NRG1-α EGF domain …; test: SPR (BIAcore T100), IgG captured by anti-human Fc, NRG1α injected; table under the head '250 nM NRG1-alpha'
Description: as §4

[11] = target: T2, Recombinant human NRG1-α EGF domain …; test: SPR (BIAcore T100), IgG captured by anti-human Fc, NRG1α (HRG-alpha) injected; sensorgram shown for 7.8 nM (sheet: '7.8 mnM HRG alpha')
Description: as §4

[12] = target: T4, Recombinant human NRG1-β ECD domain …; test: SPR (BIAcore T100), IgG captured by anti-human Fc, NRG1β (HRG-beta) injected; sensorgram shown for 7.8 nM (sheet: '7.8 mnM HRG beta')
Description: as §4

[13] = target: T4, Recombinant human NRG1-β ECD domain …; test: SPR (BIAcore T100), IgG captured by anti-human Fc; table under the head '125nM NRG-beta'; this table is identical to that of FIG. 9 (NRG1-alpha) and does not fit the slow dissociation of the sensorgrams above it

CCC1=C[C@@H]2CN(C1)Cc1c([nH]c3ccccc13)[C@@](C(=O)OC)(c1cc3c(cc1OC)N(C)[C@H]1[C@@](O)(C(=O)OC)[C@H](OC(C)=O)[C@]4(CC)C=CCN5CC[C@]31[C@@H]54)C2 [vinorelbine]
tumor response to treatment [1]: continued to grow | tumor response to treatment [2]: continued to grow

Nc1ccn([C@@H]2O[C@H](CO)[C@@H](O)C2(F)F)c(=O)n1 [gemcitabine]
tumor response to treatment [1]: tumor regression | tumor response to treatment [2]: tumor regression

B1: anti-NRG1 antibody 526.90.28 (antibody, human IgG1, kappa, V domains shown)
VH: EVQLVESGGGLVQPGGSLRLSCAASGFTFSDIAMSWVRQAPGKGLEWVSWIYPSGGNTYYADSVKGRFTISADTSKNTAYLQMNSLRAEDTAVYYCARSYILSQKSATWAFDYWGQGTLVTVSS
VL: DIQMTQSPSSLSASVGDRVTITCRASQSISSYLAWYQQKPGKAPKLLIYGASSRASGVPSRFSGSGSGTDFTLTISSLQPEDFATYYCQQSYSTPITFGQGTKVEIKR
notes: also called YW526.90.28
binding result [3]: no binding | binding result [4]: no binding | binding result [5]: no binding | Kd [6]: 0.587 nM | koff [6]: 0.000595 s⁻¹ | kon [6]: 1.01e+06 M⁻¹ s⁻¹ | IC50 of inhibition of Her3 activation (phosphorylation), KIRA on MCF-7 cells, 0.2 nM rhNRG1b [7]: 1.44 nM | IC50 of inhibition of Her3 activation (phosphorylation), KIRA on MCF-7 cells, 0.5 nM rhNRG1a [8]: 13.9 nM | Kd [9]: 1.09 nM | koff [9]: 0.000367 s⁻¹ | kon [9]: 337000 M⁻¹ s⁻¹

B2: anti-NRG1 antibody 538.24 (antibody, human IgG1, V domains shown)
VH: EVQLVESGGGLVQPGGSLRLSCAASGFTFSGTWIHWVRQAPGKGLEWVAAITPADGSTNYADSVKGRFTISADTSKNTAYLQMNSLRAEDTAVYYCATYMFAMDYWGQGTLVTVSS
VL: DIQMTQSPSSLSASVGDRVTITCRASQDVSTAVAWYQQKPGKAPKLLIYSASFLYSGVPSRFSGSGSGTDFTLTISSLQPEDFATYYCQQSYTTPPTFGQGTKVEIKR
notes: also called YW538.24
Kd [10]: > 400 nM

B3: anti-NRG1 antibody 538.24.94 (antibody, human IgG1, V domains shown)
VH: EVQLVESGGGLVQPGGSLRLSCAASGFTFSGTWIHWVRQAPGKGLEWVAAITPADGSTNYADSVKGRFTISADTSKNTAYLQMNSLRAEDTAVYYCATYMFAMDYWGQGTLVTVSS
VL: DIQMTQSPSSLSASVGDRVTITCRASQDVKKSLAWYQQKPGKAPKLLIYGASNLESGVPSRFSGSGSGTDFTLTISSLQPEDFATYYCQQHYTLPLTFGQGTKVEIKR
notes: also called YW538.24.94
Kd [11]: 1.74 nM | koff [11]: 0.00674 s⁻¹ | kon [11]: 3.87e+06 M⁻¹ s⁻¹ | Kd [12]: 0.109 nM | koff [12]: 7.34e-05 s⁻¹ | kon [12]: 674000 M⁻¹ s⁻¹ | Kd [13]: 1.96 nM | kon [13]: 480000 M⁻¹ s⁻¹

B4: anti-NRG1 antibody 538.24.36 (antibody, human IgG1, V domains shown)
VH: EVQLVESGGGLVQPGGSLRLSCAASGFTFSGTWIHWVRQAPGKGLEWVAAITPADGSTNYADSVKGRFTISADTSKNTAYLQMNSLRAEDTAVYYCATYMFAMDYWGQGTLVTVSS
VL: DIQMTQSPSSLSASVGDRVTITCRASQNVDRSLAWYQQKPGKAPKLLIYAASSLESGVPSRFSGSGSGTDFTLTISSLQPEDFATYYCQQHYTLPFTFGQGTKVEIKR
notes: also called YW538.24.36
Kd [10]: 13.2 nM | koff [10]: 0.0252 s⁻¹ | kon [10]: 1.91e+06 M⁻¹ s⁻¹ | Kd [13]: 13.2 nM | koff [13]: 0.0252 s⁻¹ | kon [13]: 1.91e+06 M⁻¹ s⁻¹

B5: anti-NRG1 antibody 538.24.17 (antibody, human IgG1, V domains shown)
VH: EVQLVESGGGLVQPGGSLRLSCAASGFTFSGTWIHWVRQAPGKGLEWVAAITPADGSTNYADSVKGRFTISADTSKNTAYLQMNSLRAEDTAVYYCATYMFAMDYWGQGTLVTVSS
VL: DIQMTQSPSSLSASVGDRVTITCRASQDVSTAVAWYQQKPGKAPKLLIYSASFLYSGVPSRFSGSGSGTDFTLTISSLQPEDFATYYCQQSYWMPPTFGQGTKVEIKR
notes: also called YW538.24.17
Kd [10]: 5.18 nM | koff [10]: 0.0081 s⁻¹ | kon [10]: 1.56e+06 M⁻¹ s⁻¹ | Kd [13]: 5.18 nM | koff [13]: 0.0081 s⁻¹ | kon [13]: 1.56e+06 M⁻¹ s⁻¹

Reference: patent US20140363438A1, “NEUREGULIN ANTIBODIES AND USES THEREOF” (Genentech, Inc., priority 2011, published 2014)
